Assay results published in patent US20200264182A1, “METHOD FOR DETECTING PROSTATE CANCER” (J-OIL MILLS, INC., priority 2017, published 2020).

Key:
[1] = Binding to sugar chains, summary of Tables 2 to 5; details: sugar chains No. 718, 722, 723, 727, 909, 910 and 933
Experimental: (§1) Details of the FAC method are described in Patent Document 2 filed by some of the present applicants, for example.
(§2) Binding constants (at 25° C.) of PhoSL, SRL, NSL and LSL belonging to the fucose α1→6 specific lectin for various sugar chains are shown in Tables 2 to 5.
The AAL and AOL bind to the fucose α1→6 sugar chains (sugar chains No. 015, 201 to 203, and 401 to 418), as well as to the glycolipid-type sugar chain excluding the fucose α1→6 (sugar chains No. 718, 722, 723, 727, 909, 910 and 933). The LCL and PSL bind to the fucose α1→6 sugar chain, as well as to sugar chain excluding the α1→6 fucose (sugar chains No. 003, and 005 to 014).

[2] = FAC binding constant; details: at 25° C.
Experimental: as §1, §2

[3] = sugar chain having fucose other than α1→6 fucose

- Binding constant for sugar chain No. 728 ([2]; Table 3: sugar chain having fucose other than α1→6 fucose): <1000 M⁻¹
- Binding constant for sugar chain No. 419 [2, 3]: <1000 M⁻¹
- Binding constant for sugar chain No. 420 [2, 3]: <1000 M⁻¹
- Binding constant for sugar chain No. 718 [2, 3]: 65000 M⁻¹
- Binding constant for sugar chain No. 719 [2, 3]: <1000 M⁻¹
- Binding constant for sugar chain No. 720 [2, 3]: <1000 M⁻¹
- Binding constant for sugar chain No. 721 [2, 3]: <1000 M⁻¹
- Binding constant for sugar chain No. 722 [2, 3]: <1000 M⁻¹
- Binding constant for sugar chain No. 723 [2, 3]: 35000 M⁻¹
- Binding constant for sugar chain No. 726 [2, 3]: <1000 M⁻¹
- Binding constant for sugar chain No. 727 [2, 3]: 130000 M⁻¹
- Binding constant for sugar chain No. 729 [2, 3]: <1000 M⁻¹
- Binding constant for sugar chain No. 730 [2, 3]: <1000 M⁻¹
- Binding constant for sugar chain No. 731 [2, 3]: <1000 M⁻¹
- Binding constant for sugar chain No. 739 [2, 3]: <1000 M⁻¹
- Binding constant for sugar chain No. 909 [2, 3]: 310000 M⁻¹
- Binding constant for sugar chain No. 910 [2, 3]: 90000 M⁻¹
- Binding constant for sugar chain No. 931 [2, 3]: <1000 M⁻¹
- Binding constant for sugar chain No. 932 [2, 3]: <1000 M⁻¹
- Binding constant for sugar chain No. 933 [2, 3]: 210000 M⁻¹
- Binding constant for sugar chain No. 001 ([2]; sugar chain having no fucose): <1000 M⁻¹
- Binding constant for sugar chain No. 002 ([2]; sugar chain having no fucose): <1000 M⁻¹
- Binding constant for sugar chain No. 003 ([2]; sugar chain having no fucose): <1000 M⁻¹
- Binding constant for sugar chain No. 004 ([2]; sugar chain having no fucose): <1000 M⁻¹
- Binding constant for sugar chain No. 005 ([2]; sugar chain having no fucose): <1000 M⁻¹
- Binding constant for sugar chain No. 006 ([2]; sugar chain having no fucose): <1000 M⁻¹
- Binding constant for sugar chain No. 007 ([2]; sugar chain having no fucose): <1000 M⁻¹
- Binding constant for sugar chain No. 008 ([2]; sugar chain having no fucose): <1000 M⁻¹
- Binding constant for sugar chain No. 009 ([2]; sugar chain having no fucose): <1000 M⁻¹
- Binding constant for sugar chain No. 010 ([2]; sugar chain having no fucose): <1000 M⁻¹
- Binding constant for sugar chain No. 011 ([2]; sugar chain having no fucose): <1000 M⁻¹
- Binding constant for sugar chain No. 012 ([2]; sugar chain having no fucose): <1000 M⁻¹
- Binding constant for sugar chain No. 013 ([2]; sugar chain having no fucose): <1000 M⁻¹
- Binding constant for sugar chain No. 014 ([2]; sugar chain having no fucose): <1000 M⁻¹
- Binding constant for sugar chain No. 101 ([2]; sugar chain having no fucose): <1000 M⁻¹
- Binding constant for sugar chain No. 103 ([2]; sugar chain having no fucose): <1000 M⁻¹
- Binding constant for sugar chain No. 104 ([2]; sugar chain having no fucose): <1000 M⁻¹
- Binding constant for sugar chain No. 105 ([2]; sugar chain having no fucose): <1000 M⁻¹
- Binding constant for sugar chain No. 107 ([2]; sugar chain having no fucose): <1000 M⁻¹
- Binding constant for sugar chain No. 108 ([2]; sugar chain having no fucose): <1000 M⁻¹
- Binding constant for sugar chain No. 301 ([2]; sugar chain having no fucose): <1000 M⁻¹
- Binding constant for sugar chain No. 304 ([2]; sugar chain having no fucose): <1000 M⁻¹
- Binding constant for sugar chain No. 305 ([2]; sugar chain having no fucose): <1000 M⁻¹
- Binding constant for sugar chain No. 307 ([2]; sugar chain having no fucose): <1000 M⁻¹
- Binding constant for sugar chain No. 308 ([2]; sugar chain having no fucose): <1000 M⁻¹
- Binding constant for sugar chain No. 313 ([2]; sugar chain having no fucose): <1000 M⁻¹
- Binding constant for sugar chain No. 314 ([2]; sugar chain having no fucose): <1000 M⁻¹
- Binding constant for sugar chain No. 323 ([2]; sugar chain having no fucose): <1000 M⁻¹
- Binding constant for sugar chain No. 501 ([2]; sugar chain having no fucose): <1000 M⁻¹
- Binding constant for sugar chain No. 502 ([2]; sugar chain having no fucose): <1000 M⁻¹
- Binding constant for sugar chain No. 503 ([2]; sugar chain having no fucose): <1000 M⁻¹
- Binding constant for sugar chain No. 504 ([2]; sugar chain having no fucose): <1000 M⁻¹
- Binding constant for sugar chain No. 701 ([2]; sugar chain having no fucose): <1000 M⁻¹
- Binding constant for sugar chain No. 702 ([2]; sugar chain having no fucose): <1000 M⁻¹
- Binding constant for sugar chain No. 703 ([2]; sugar chain having no fucose): <1000 M⁻¹
- Binding constant for sugar chain No. 704 ([2]; sugar chain having no fucose): <1000 M⁻¹
- Binding constant for sugar chain No. 705 ([2]; sugar chain having no fucose): <1000 M⁻¹
- Binding constant for sugar chain No. 706 ([2]; sugar chain having no fucose): <1000 M⁻¹
- Binding constant for sugar chain No. 707 ([2]; sugar chain having no fucose): <1000 M⁻¹
- Binding constant for sugar chain No. 708 ([2]; sugar chain having no fucose): <1000 M⁻¹
- Binding constant for sugar chain No. 709 ([2]; sugar chain having no fucose): <1000 M⁻¹
- Binding constant for sugar chain No. 710 ([2]; sugar chain having no fucose): <1000 M⁻¹
- Binding constant for sugar chain No. 711 ([2]; sugar chain having no fucose): <1000 M⁻¹
- Binding constant for sugar chain No. 712 ([2]; sugar chain having no fucose): <1000 M⁻¹
- Binding constant for sugar chain No. 713 ([2]; sugar chain having no fucose): <1000 M⁻¹
- Binding constant for sugar chain No. 715 ([2]; sugar chain having no fucose): <1000 M⁻¹
- Binding constant for sugar chain No. 716 ([2]; sugar chain having no fucose): <1000 M⁻¹
- Binding constant for sugar chain No. 717 ([2]; sugar chain having no fucose): <1000 M⁻¹
- Binding constant for sugar chain No. 724 ([2]; sugar chain having no fucose): <1000 M⁻¹
- Binding constant for sugar chain No. 725 ([2]; sugar chain having no fucose): <1000 M⁻¹
- Binding constant for sugar chain No. 732 ([2]; sugar chain having no fucose): <1000 M⁻¹
- Binding constant for sugar chain No. 733 ([2]; sugar chain having no fucose): <1000 M⁻¹
- Binding constant for sugar chain No. 734 ([2]; sugar chain having no fucose): <1000 M⁻¹
- Binding constant for sugar chain No. 735 ([2]; sugar chain having no fucose): <1000 M⁻¹
- Binding constant for sugar chain No. 736 ([2]; sugar chain having no fucose): <1000 M⁻¹
- Binding constant for sugar chain No. 737 ([2]; sugar chain having no fucose): <1000 M⁻¹
- Binding constant for sugar chain No. 738 ([2]; sugar chain having no fucose): <1000 M⁻¹
- Binding constant for sugar chain No. 901 ([2]; sugar chain having no fucose): <1000 M⁻¹
- Binding constant for sugar chain No. 902 ([2]; sugar chain having no fucose): <1000 M⁻¹
- Binding constant for sugar chain No. 903 ([2]; sugar chain having no fucose): <1000 M⁻¹
- Binding constant for sugar chain No. 905 ([2]; sugar chain having no fucose): <1000 M⁻¹
- Binding constant for sugar chain No. 906 ([2]; sugar chain having no fucose): <1000 M⁻¹
- Binding constant for sugar chain No. 907 ([2]; sugar chain having no fucose): <1000 M⁻¹
- Binding constant for sugar chain No. 015 ([2]; sugar chain having α1→6 fucose): 91000 M⁻¹
- Binding constant for sugar chain No. 201 ([2]; sugar chain having α1→6 fucose): 51000 M⁻¹
- Binding constant for sugar chain No. 202 ([2]; sugar chain having α1→6 fucose): 54000 M⁻¹
- Binding constant for sugar chain No. 203 ([2]; sugar chain having α1→6 fucose): 66000 M⁻¹
- Binding constant for sugar chain No. 401 ([2]; sugar chain having α1→6 fucose): 55000 M⁻¹
- Binding constant for sugar chain No. 402 ([2]; sugar chain having α1→6 fucose): 11000 M⁻¹
- Binding constant for sugar chain No. 403 ([2]; sugar chain having α1→6 fucose): 52000 M⁻¹
- Binding constant for sugar chain No. 404 ([2]; sugar chain having α1→6 fucose): 65000 M⁻¹
- Binding constant for sugar chain No. 405 ([2]; sugar chain having α1→6 fucose): 56000 M⁻¹
- Binding constant for sugar chain No. 406 ([2]; sugar chain having α1→6 fucose): 47000 M⁻¹
- Binding constant for sugar chain No. 407 ([2]; sugar chain having α1→6 fucose): 45000 M⁻¹
- Binding constant for sugar chain No. 410 ([2]; sugar chain having α1→6 fucose): 38000 M⁻¹
- Binding constant for sugar chain No. 413 ([2]; sugar chain having α1→6 fucose): 32000 M⁻¹
- Binding constant for sugar chain No. 418 ([2]; sugar chain having α1→6 fucose): <1000 M⁻¹
- Binding constant for sugar chain No. 601 ([2]; sugar chain having α1→6 fucose): 61000 M⁻¹
- Binding constant for sugar chain No. 602 ([2]; sugar chain having α1→6 fucose): 52000 M⁻¹
B1: AAL: Aleuria aurantia lectin, has affinity for fucose α1→6 but is not specific; from J-OIL MILLS, Inc. (protein)
chain: PTEFLYTSKIAAISWAATGGRQQRVYFQDLNGKIREAQRGGDNPWTGGSSQNVIGEAKLFSPLAAVTWKSAQGIQIRVYCVNKDNILSEFVYDGSKWITGQLGSVGVKVGSNSKLAALQWGGSESAPPNIRVYYQKSNGSGSSIHEYVWSGKWTAGASFGSTVPGTGIGATAIGPGRLRIYYQATDNKIREHCWDSNSWYVGGFSASASAGVSIAAISWGSTPNIRVYWQKGREELYEAAYGGSWNTPGQIKDASRPTPSLPDTFIAANSSGNIDISVFFQASGVSLQQWQWISGKGWSIGAVVPTGTPAGW
- binding to the glycolipid-type sugar chain excluding the fucose α1→6 (in words) [1]: bind
